Experimental data as given in the supplement of paper PMC9732359.
± gives the uncertainty stated by the source.

Assay: protein stability index of a GFP-peptide fusion (yeast GPS) (PSI 1-4); higher = more stable; sorted into four equal gates, so the index is relative within each strain
Procedure, shortened: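 Mid-log yeast cultures in leucine-free medium, carrying a pooled plasmid library, were sorted into four equal gates by their GFP/Cherry fluorescence ratio. Each plasmid expressed Cherry along with GFP fused upstream of a tiled 17-residue yeast protein peptide. Plasmids recovered from each gate were PCR-amplified and Illumina-sequenced, with reads assigned to strains by barcodes. The protein stability index was obtained by summing each gate's read frequency weighted by its gate number.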

Sequence	protein stability index (doa10∆)	protein stability index (pdr5∆)	protein stability index (san1∆)	protein stability index (ubr1∆)
RSRNGGATKIVREHYLR [DIS3]	3.21 ± 0.073	3.36 ± 0.083	3.36 ± 0.081	3.2 ± 0.099
KRFKRKDNAKISNNLAL [SRP68]	2.31 ± 0.054	2.59 ± 0.067	2.26 ± 0.079	1.95 ± 0.045
RSLATAVATPKAEVTQL [COR1]	2.99 ± 0.1	3.09 ± 0.13	2.98 ± 0.092	2.89 ± 0.042
LEAVNSMIEKGGDWERR [RPN7]	3.02 ± 0.1	3.1 ± 0.093	2.8 ± 0.08	2.87 ± 0.06
ILRKSFDFLMNMPNCDY [RPN2]	1.3 ± 0.099	1.1 ± 0.092	1.23 ± 0.12	1.16 ± 0.041
SLDTSASTINGASIIQV [YML103C/NUP188]	1.19 ± 0.081	1.44 ± 0.086	1.29 ± 0.12	1.14 ± 0.093
AASTPTTTATPHANPIT [PGD1]	2.91 ± 0.044	2.85 ± 0.035	2.92 ± 0.038	2.916 ± 0.026
PGGQAALRALARSGLRI [RPS14A]	2.15 ± 0.032	2.35 ± 0.029	2.21 ± 0.04	1.92 ± 0.022
IAATAVASLVLARGHRV [RPL4A]	2.6 ± 0.22	1.93 ± 0.19	2.08 ± 0.24	1.93 ± 0.09
SLSVVAGKWSSKYLIKQ [ECM29]		2.19 ± 0.18	2.15 ± 0.17	2.39 ± 0.095
EEESLHVFQYANRPRLV [RPC37]	1.36 ± 0.058	1.66 ± 0.081	1.79 ± 0.13	2.21 ± 0.047
SNSNNNGNKDSSFNFNK [SWI1]	3.04 ± 0.053	3.17 ± 0.043	3.13 ± 0.04	3.16 ± 0.04
ILSEILCQINKCSTRGL [YML103C/NUP188]	1.31 ± 0.088	1.55 ± 0.084	1.98 ± 0.097	2 ± 0.057
SDDKTRQLSPHTLMSFA [PRE1]	1.83 ± 0.046	2.12 ± 0.05	2.26 ± 0.082	2.18 ± 0.038
HWMGSSVSGSPRPSYSS [YMR129W/POM152]	2.98 ± 0.088	3.11 ± 0.089	2.74 ± 0.07	2.87 ± 0.084
DAGKIDKHLYHVLYKES [RPL19A]	3.25 ± 0.24	3.12 ± 0.2	2.7 ± 0.091	2.89 ± 0.083
QMLIQGVWDVDNPLRQI [BRR2]	3.54 ± 0.13	3.26 ± 0.19	3.47 ± 0.091	2.78 ± 0.14
TTTSNTSGTNIAGTFNV [YOR098C/NUP1]	3 ± 0.05	2.54 ± 0.037	2.5 ± 0.051	2.24 ± 0.028
NRMQISPDQMRNLQMGL [GRR1]		3.18 ± 0.12	3.27 ± 0.11	2.83 ± 0.12
CQILDGELDVLQIESVT [PRP8]	2.56 ± 0.05	2.78 ± 0.062	2.55 ± 0.065	2.86 ± 0.059
SHLVVPYCPIASITGTG [YMR129W/POM152]	1.36 ± 0.065	1.37 ± 0.066	1.33 ± 0.1	1.36 ± 0.03

Sequence	protein stability index (doa10∆)	protein stability index (pdr5∆)	protein stability index (san1∆)	protein stability index (ubr1∆)
TDGELDIEFINSLLTIV [RPC34]	2.78 ± 0.095	2.68 ± 0.14	2.4 ± 0.092	2.81 ± 0.091
KKAAEEAGVTDVKVSIS [FAS2]	1.44 ± 0.09	1.66 ± 0.08	2.23 ± 0.24	1.18 ± 0.1
ANCQRQLTEFWTELCQR [NNF1]	3.09 ± 0.081	2.87 ± 0.08	3 ± 0.075	2.82 ± 0.099
GGESAYFFQLQIRSADE [RPC11]	2.73 ± 0.06	2.88 ± 0.062	2.71 ± 0.06	3.22 ± 0.062
KTNEESAKMILLSDPTI [PRP8]	2.77 ± 0.12	2.95 ± 0.16	2.94 ± 0.1	2.92 ± 0.042
SGNLPLNELSAKDKEIY [RPN13]	3.21 ± 0.074	3.32 ± 0.083	3.27 ± 0.044	3.19 ± 0.067
GKRIAYVYRASKEVRGS [RPL33A]	2.8 ± 0.063	2.57 ± 0.08	2.43 ± 0.064	2.73 ± 0.047
SESDLDEDKNFPRSRSR [ESC2]	2.98 ± 0.087	3.24 ± 0.08	3.32 ± 0.059	3.28 ± 0.054
SPTSPSYSPTSPSYSPT [RPO21]	2.74 ± 0.037	2.91 ± 0.039	2.72 ± 0.036	2.82 ± 0.029
KVFSLDPQYLVDDLRPE [ASC1]	2.94 ± 0.16	2.84 ± 0.1	3.04 ± 0.09	3.15 ± 0.078
LLHERKLLNDLALENGE [NUT1]	2.75 ± 0.06	2.66 ± 0.073	2.54 ± 0.083	2.84 ± 0.039
AVFIVPKILIREHERVI [SWP82]	1.7 ± 0.085	2.06 ± 0.097	1.69 ± 0.15	2.1 ± 0.19
QGTGKKTASLGNSKDDL [ISW2]	3.02 ± 0.12	2.9 ± 0.18	3.41 ± 0.057	3.42 ± 0.14
FGQDVSPMINSTSSGKV [SNM1]	2.81 ± 0.1	3.32 ± 0.077	2.74 ± 0.067	3.02 ± 0.057
PHLIIQNHNSKSTDNSA [IRR1]	2.71 ± 0.047	2.88 ± 0.057	2.81 ± 0.05	2.78 ± 0.034
GLVNHRVGVKLKFNSTE [SMX3]	2.48 ± 0.052	2.24 ± 0.04	1.94 ± 0.056	1.48 ± 0.036
KVTQMTPAPKISYKKGA [RPL36B]	3.12 ± 0.13	3.27 ± 0.11	3.31 ± 0.061	3.21 ± 0.1
TYRSRAQQVPPYGVYHP [SIN4]	2.77 ± 0.1	2.13 ± 0.085	2.8 ± 0.063	2.71 ± 0.078
DSNESDDDVTPSTKVAS [YLR335W/NUP2]	3.46 ± 0.16	3.13 ± 0.15	3.26 ± 0.088	3.54 ± 0.12
TKSSLNDLDYDLIADTI [YML103C/NUP188]	2.64 ± 0.07	2.48 ± 0.057	2.27 ± 0.067	2.52 ± 0.053
DAGVTFNKEQLNKFKKA [ECM29]	1.83 ± 0.053	2.13 ± 0.11	1.55 ± 0.14	2.36 ± 0.059
